Results taken from IntAct's records for PubMed 17159996.

B1: Tyrosine-protein phosphatase non-receptor type 1 (Homo sapiens), P18031 (parent)
chain: MEMEKEFEQIDKSGSWAAIYQDIRHEASDFPCRVAKLPKNKNRNRYRDVSPFDHSRIKLHQEDNDYINASLIKMEEAQRSYILTQGPLPNTCGHFWEMVWEQKSRGVVMLNRVMEKGSLKCAQYWPQKEEKEMIFEDTNLKLTLISEDIKSYYTVRQLELENLTTQETREILHFHYTTWPDFGVPESPASFLNFLFKVRESGSLSPEHGPVVVHCSAGIGRSGTFCLADTCLLLMDKRKDPSSVDIKKVLLEMRKFRMGLIQTADQLRFSYLAVIEGAKFIMGDSSVQDQWKELSHEDLEPPPEHIPPPPRPPKRILEPHNGKCREFFPNHQWVKEETQEDKDCPIKEEKGSPLNAAPYGIESMSQDTEVRSRVVGGSLRGAQAASPAKGEPSLPEKDEDHALSYWKPFLVNMCVATVLTAGAYLCYRFLFNSNT

Variants of: B1
Settings: with insr_human INSR

| effect of a mutation on the interaction | Variant |
| --- | --- |
| decreasing interaction | K73R;K335R;K347R;K389R |
